Reference: PMC10163345 (2023)
Where no end group is shown, it is not given here.

Biological target: constitutively active truncated His-tagged WT calcineurin (6×His–CNAαWT:CNB) (Homo sapiens (Human),Homo sapiens …, UniProt Q08209,P63098)
Assay: His-tag pulldown + immunoblot

Sequence of constitutively active truncated His-tagged WT calcineurin (6×His–CNAαWT:CNB) (Q08209 1-392, one chain of several): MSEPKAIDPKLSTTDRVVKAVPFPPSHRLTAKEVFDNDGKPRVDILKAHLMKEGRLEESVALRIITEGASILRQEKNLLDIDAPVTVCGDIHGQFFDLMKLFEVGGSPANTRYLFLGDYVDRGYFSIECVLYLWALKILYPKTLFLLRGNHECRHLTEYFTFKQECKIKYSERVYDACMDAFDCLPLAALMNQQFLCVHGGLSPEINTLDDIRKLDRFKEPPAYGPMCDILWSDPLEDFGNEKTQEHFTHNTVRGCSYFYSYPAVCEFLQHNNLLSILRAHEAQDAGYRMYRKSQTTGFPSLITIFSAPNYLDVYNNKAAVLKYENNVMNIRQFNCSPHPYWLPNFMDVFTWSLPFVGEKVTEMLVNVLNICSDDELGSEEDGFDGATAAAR

B1: GST-tagged POC5 PxIxIT peptide (POC5 PDVRIS) (protein)
chain: KGELVPDVRISTIHDI
modifications: also: GST-tagged fusion
Question: Does B1 bind?
Answer: binds
